# Source: patent US20240400675A1 (published 2024)
# Residue numbers refer to the chain shown, from its start.
# T1: human CLDN9 (UniProt O95484 1-217)
# T1 chain: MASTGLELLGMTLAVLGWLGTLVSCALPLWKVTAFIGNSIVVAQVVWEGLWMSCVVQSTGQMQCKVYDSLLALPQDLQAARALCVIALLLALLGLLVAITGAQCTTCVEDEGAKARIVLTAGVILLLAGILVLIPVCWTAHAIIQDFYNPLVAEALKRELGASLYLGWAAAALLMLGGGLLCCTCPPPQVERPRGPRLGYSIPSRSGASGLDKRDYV
# T2: human CLDN6 (UniProt P56747 1-220)
# T2 chain: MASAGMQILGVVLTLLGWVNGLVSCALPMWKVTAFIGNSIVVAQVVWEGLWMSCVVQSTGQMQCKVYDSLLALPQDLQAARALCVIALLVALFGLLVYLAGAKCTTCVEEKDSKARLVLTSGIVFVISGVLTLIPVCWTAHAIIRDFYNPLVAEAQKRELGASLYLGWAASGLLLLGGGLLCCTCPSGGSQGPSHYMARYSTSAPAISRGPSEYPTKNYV
# B1: XENP35070 H2_L1.27 (antibody, V domains shown)
# VH: EVQLVQSGAEVKKPGESLRISCKTSGYTFTEYTMHWVRQMPGKSLEWMGGIDPNNGNTHYNQKFQGHVTISVDKSISTAYLQWSSLKASDTAMYYCARIYYFGRLYFDFWGAGTLVTVSS
# VL: DIQMTQSPSSLSASVGDRVTITCQASEDIYNRLAWYQQKPGKVPKLLISGATSLESGVPSRFSGSGSGKDYTFTISSLQPEDIATYYCQQYWSSPLTFGGGTKVEIKR
# B2: XENP35087 H1.3_L1 (antibody, V domains shown)
# VH: QVQLVQSGAEVKKPGASVKVSCKTSGYTFTEYTMHWVRQAPGQSLEWMGGIDSNNGNTHYNQKFQGRVTITVDKSASTAYMELSSLRSEDTAVYYCARIYYFGRLYFDFWGAGTLVTVSS
# VL: B1 VL with S56T
# B3: XENP35088 H1.4_L1 (antibody, V domains shown)
# VH: B2 VH with S53A
# VL: B1 VL with S56T
# B4: XENP35093 (having C6-30 H1.9_L1) (antibody, V domains shown)
# VH: B2 VH with S53P, G56A
# VL: B1 VL with S56T
# B5: XENP35100 H2.7_L1 (antibody, V domains shown)
# VH: B1 VH with N55Q
# VL: B1 VL with S56T
# B6: XENP35101 having H2.8_L1 (antibody, V domains shown)
# VH: B1 VH with G56D
# VL: B1 VL with S56T
# B7: XENP35091 H1.7_L1 (antibody, V domains shown)
# VH: B2 VH with S53P, N55Q
# VL: B1 VL with S56T
# B8: XENP35050 H2_L1.7 (antibody, V domains shown)
# VH: B1 VH
# VL: B1 VL with N31S, S56T
# B9: XENP35102 having H2.9_L1 (antibody, V domains shown)
# VH: B1 VH with G56A
# VL: B1 VL with S56T
# B10: XENP35047 H2_L1.4 (antibody, V domains shown)
# VH: B1 VH
# VL: B1 VL with I29V, S56T
# B11: XENP35059 H2_L1.16 (antibody, V domains shown)
# VH: B1 VH
# VL: B1 VL with G50A, S56T
# B12: XENP35066 H2_L1.23 (antibody, V domains shown)
# VH: B1 VH
# VL: B1 VL with L54R, S56T
# B13: XENP35062 H2_L1.19 (antibody, V domains shown)
# VH: B1 VH
# VL: B1 VL with T52S, S56T
# B14: XENP35097 H2.4_L1 (antibody, V domains shown)
# VH: B1 VH with P53G
# VL: B1 VL with S56T
# B15: XENP35064 H2_L1.21 (antibody, V domains shown)
# VH: B1 VH
# VL: B1 VL with S53N, S56T
# B16: XENP35092 H1.8_L1 (antibody, V domains shown)
# VH: B2 VH with S53P, G56D
# VL: B1 VL with S56T
# B17: XENP35061 H2_L1.18 (antibody, V domains shown)
# VH: B1 VH
# VL: B1 VL with A51T, S56T
# B18: XENP35065 H2_L1.22 (antibody, V domains shown)
# VH: B1 VH
# VL: B1 VL with S53Q, S56T
# B19: XENP35096 H2.3_L1 (antibody, V domains shown)
# VH: B1 VH with P53S
# VL: B1 VL with S56T
# B20: XENP35044 H2_L1.1 (antibody, V domains shown)
# VH: B1 VH
# VL: B1 VL with E27Q, S56T
# B21: XENP35936 H2_L1.114 (antibody, V domains shown)
# VH: B1 VH
# VL: B1 VL with S56T, S94G
# B22: XENP36021 H2.71_L1 (antibody, V domains shown)
# VH: B1 VH with P53L
# VL: B1 VL with S56T
# B23: XENP35883 H1.19_L1 (antibody, V domains shown)
# VH: B2 VH with S53P, V93T
# VL: B1 VL with S56T
# B24: XENP36065 H2.118_L1 (antibody, V domains shown)
# VH: B1 VH with F64K
# VL: B1 VL with S56T
# B25: XENP36022 H2.72_L1 (antibody, V domains shown)
# VH: B1 VH with P53A
# VL: B1 VL with S56T
# B26: XENP36025 H2.75_L1 (antibody, V domains shown)
# VH: B1 VH with N54H
# VL: B1 VL with S56T
# B27: XENP36066 H2.119_L1 (antibody, V domains shown)
# VH: B1 VH with Q65E
# VL: B1 VL with S56T
# B28: XENP36041 H2.91_L1 (antibody, V domains shown)
# VH: B1 VH with G56F
# VL: B1 VL with S56T
# B29: XENP35929 H2_L1.107 (antibody, V domains shown)
# VH: B1 VH
# VL: B1 VL with S56T, S94A
# B30: XENP35890 H2.11_L1 (antibody, V domains shown)
# VH: B1 VH with T28S
# VL: B1 VL with S56T
# B31: XENP35979 H2_L1.187 (antibody, V domains shown)
# VH: B1 VH
# VL: B1 VL with Y30V, S56T
# Target: T1, human CLDN9
# Experiment: HEK293E cell binding; avid
row,EC50 [µg/mL],Binder
1,29.7,B1
2,31.8,B2
3,29.2,B3
4,53.1,B4
5,63.5,B5
6,1.06,B6
7,31.4,B7
8,99.3,B8
9,1.43,B9
10,17.6,B10
11,32.7,B11
12,31.8,B12
13,86.8,B13
14,72.9,B14
15,14.1,B15
16,25,B16
17,56.3,B17
18,69.1,B18
19,110,B19

# Target: T2, human CLDN6
# Experiment: HEK293E cell binding; avid
row,EC50 [µg/mL],Binder
1,1.18,B1
2,1.2,B2
3,1.29,B3
4,4.34,B20
5,0.978,B4
6,1.14,B5
7,24.8,B6
8,1.43,B7
9,2.22,B8
10,3.53,B9
11,0.795,B10
12,1.28,B11
13,1.59,B12
14,1.23,B13
15,1.1,B14
16,0.979,B15
17,1.16,B16
18,1.25,B17
19,1.48,B18
20,1.24,B19

# Target: T1, human CLDN9
# Experiment: HEK293E cell binding; avid
# Remark: another data set of the same source
row,EC50 [µg/mL],Binder
1,57.4,B21
2,49.3,B22
3,16.8,B23
4,492,B24
5,47.2,B25
6,61.1,B26
7,18,B27
8,32.5,B28
9,99.1,B29
10,34.1,B30
11,29.2,B31

# Target: T2, human CLDN6
# Experiment: HEK293E cell binding; avid
# Remark: another data set of the same source
row,EC50 [µg/mL],Binder
1,0.829,B21
2,0.902,B22
3,0.617,B23
4,0.783,B24
5,0.514,B25
6,1.34,B26
7,0.567,B27
8,0.449,B28
9,0.792,B29
10,0.408,B30
11,0.323,B31
